Kd, EC50 and koff data for two substances are collected here from paper PMC11203266, “Continuous evolution of compact protein degradation tags regulated by selective molecular glues” (Science (New York, N.Y.), 2024).

The target in test [1] is two-zinc finger construct containing SD0, MBP–Avi–His fusion, biotinylated (UniProt Q13422). Description: FRET; saturating pomalidomide. The note with it: complex.
The target is the same in test [2]. Description: FRET; pomalidomide titration (compound EC50 of ternary complex formation).
Test [3] addresses DDB1^ΔBPB•CRBN complex (tags cleaved, for BLI) (human) (UniProt Q96SW2). Description: BLI; pomalidomide.

Sequence of DDB1^ΔBPB•CRBN complex (tags cleaved, for BLI) (human) (Q96SW2 whole entry, stated change not applied, chain 1 of 2): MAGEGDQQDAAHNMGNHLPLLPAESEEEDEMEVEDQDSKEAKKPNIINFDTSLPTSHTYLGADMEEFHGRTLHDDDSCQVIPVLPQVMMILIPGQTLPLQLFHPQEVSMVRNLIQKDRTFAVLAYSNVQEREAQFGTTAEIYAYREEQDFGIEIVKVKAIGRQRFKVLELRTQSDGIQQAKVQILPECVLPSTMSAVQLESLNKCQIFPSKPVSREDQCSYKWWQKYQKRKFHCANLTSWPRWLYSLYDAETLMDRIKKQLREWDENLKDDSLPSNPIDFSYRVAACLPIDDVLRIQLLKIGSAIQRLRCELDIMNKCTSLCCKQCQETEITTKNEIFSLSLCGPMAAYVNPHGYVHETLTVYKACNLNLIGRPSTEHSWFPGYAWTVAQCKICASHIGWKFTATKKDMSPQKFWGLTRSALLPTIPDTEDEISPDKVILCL
Sequence of DDB1^ΔBPB•CRBN complex (tags cleaved, for BLI) (human) (Q16531 other isoform, or with tags, fused parts or gaps mutant, chain 2 of 2, further chain): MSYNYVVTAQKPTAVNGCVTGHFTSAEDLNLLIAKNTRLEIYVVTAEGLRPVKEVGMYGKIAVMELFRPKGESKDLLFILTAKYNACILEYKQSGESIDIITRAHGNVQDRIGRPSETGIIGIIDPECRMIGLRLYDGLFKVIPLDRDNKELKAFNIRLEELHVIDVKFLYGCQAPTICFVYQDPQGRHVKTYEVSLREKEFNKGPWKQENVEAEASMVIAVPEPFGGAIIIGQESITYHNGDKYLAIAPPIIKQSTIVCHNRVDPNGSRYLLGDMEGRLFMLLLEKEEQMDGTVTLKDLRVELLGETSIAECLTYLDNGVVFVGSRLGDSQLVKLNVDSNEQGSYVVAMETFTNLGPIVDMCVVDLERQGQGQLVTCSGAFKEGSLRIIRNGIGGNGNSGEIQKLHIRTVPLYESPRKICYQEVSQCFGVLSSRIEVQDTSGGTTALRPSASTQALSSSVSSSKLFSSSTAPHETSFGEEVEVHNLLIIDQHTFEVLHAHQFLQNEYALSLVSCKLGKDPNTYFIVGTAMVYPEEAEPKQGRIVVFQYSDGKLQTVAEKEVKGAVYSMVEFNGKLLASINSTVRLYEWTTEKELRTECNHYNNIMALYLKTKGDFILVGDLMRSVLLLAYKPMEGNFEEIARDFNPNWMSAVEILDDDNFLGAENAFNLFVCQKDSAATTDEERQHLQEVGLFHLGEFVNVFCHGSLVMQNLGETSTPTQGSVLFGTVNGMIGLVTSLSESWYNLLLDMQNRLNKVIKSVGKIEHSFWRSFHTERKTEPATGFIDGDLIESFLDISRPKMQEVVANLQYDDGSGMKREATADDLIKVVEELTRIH
Sequence of two-zinc finger construct containing SD0, MBP–Avi–His fusion, biotinylated (Q13422 other isoform, or with tags, fused parts or gaps): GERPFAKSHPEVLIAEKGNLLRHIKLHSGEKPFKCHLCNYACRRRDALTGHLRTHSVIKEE

For “CRBN–eGFP•DDB1^ΔBPB (from UniProt Q96SW2 1-442; Q16531 1-395; Q16531 706-1140)”, the Kd in test [1] was 212 nM. In test [2], the EC50 was found to be 314 nM.

Regarding “two-zinc finger construct containing SD0, MBP–Avi–His fusion, biotinylated (from UniProt Q13422 141-145; Q96JP5 450-460; Q13422 157-243)”, in test [3], the Kd is 245 nM and the koff turned out to be 0.071 s⁻¹.

Usually Kd stands for the free concentration of one partner at which half of the binding sites on the other are occupied at equilibrium, for simple one-to-one binding. High values mean a looser complex, low ones a tighter complex. One may read the EC50 as the midpoint of the concentration-response curve. A lower EC50 goes with a more potent agent. Usually koff stands for the first-order rate constant of dissociation.
